Columns and labels:
Type in all cases: binding
HMW-MAA [1] = biological target: T1, HMW-MAA (Homo sapiens, UniProt Q6UVK1); assay: Indirect immunoprecipitation and SDS-PAGE from labeled Colo38 cell lysate
Procedure: FIG. 3. Structural relationship between molecules recognized by scFv C21 and by HMW-MAA-specific mouse mAb 763.74 in a HMW-MAA^+ Colo38 cell lysate. A 1% NP-40 extract of ^125I-labeled Colo38 cells was immunodepleted with mAb 763.74. The immunodepleted cell extract was immunoprecipitated with insolubilized mAb 763.74 and scFv C21. Antigens were eluted and analyzed by SDS-PAGE in an 8% polyacrylamide gel. Gels were fixed, dried and autoradiographed for up to 1 day at −80° C. A 1% NP-40 extract of ^125I-labeled Colo38 cells immunodepleted with 100 kD MAA-specific mouse mAb 376.94 was used as a control.
FIG. 4. Role of N-linked glycosylation in the expression of the antigenic determinant recognized by scFv C21 on HMW-MAA isolated from a HMW-MAA^+ Colo38 cell extract. A 1% NP-40 extract of Colo38 cells labelled with ^35S-methionine in the presence of tunicamycin (0, 2 and 3 μg/ml,) was immunoprecipitated with scFv C21. Antigens were eluted from the immunoadsorbent and analyzed by SDS-PAGE in an 8% polyacrylamide gel. Gels were fixed, dried and processed for fluorography for up to three days at −80° C. using Hyperfilm-ECL. HMW-MAA-specific mouse mAb 763.74 was used as a control.
Labeling of cells with ^125Iodine (Na^125 I; Amersham) or with ^35S methionine (Trans-^35S-label, ICN Biochemicals, Costa Mesa, Calif.) in the presence of tunicamycin (Sigma Chemical Co.) was performed as described (Noronha et al., J Immunol 161:2968-2976, 1998; Desai et al., J Immunol 165:3275-3283, 2000). Solubilization of labelled cells, immunoprecipitation, SDS-PAGE, autoradiography and fluorography were performed as described (Desai et al., Cancer Res 58:2417-2425, 1998) except for the use of Gammon Bind plus sepharose (Amersham) instead of protein A coated with rabbit anti-mouse IgG antibodies.

HMW-MAA [2] = biological target: T1, HMW-MAA; assay: Flow cytometry of M14/HMW-MAA transfectants and parental M14 cells stained with scFv; design: from tissue; host or cells: human nevi, primary and metastatic melanoma lesions (frozen sections)
Procedure: FIG. 2. Flow cytometry analysis of HMW-MAA^+ M14#5/HMW-MAA melanoma cells stained with scFv C21. M14#5/HMW-MAA transfectants and parental HMW-MAA^− M14#5 cells were incubated on ice with PP scFv C21 and mAb 9E10 (empty histogram) and control PP scFv 119 and mAb 9E10 (grey histogram) (top panel), with HMW-MAA-specific mouse mAb 763.74 (0.5 μg) (empty histogram) and control mAb MK2-23 (grey histogram) (middle panel) and with HLA class I antigen-specific mAb TP25.99 (empty histogram) and control mAb MK2-23 (grey histogram) (bottom panel). Binding of antibodies was detected using RPE-labeled F(ab′)2 fragments of goat anti-mouse Ig antibodies. Cells were analyzed with a FACScan™ flow cytometer. Results are expressed as fluorescence intensity.
Flow cytometry analysis of melanoma cells stained with scFv antibodies or antibodies in immune sera was performed as described (Wang et al., J Immunol Methods 294:23-35, 2004, herein incorporated by reference). […] Following two washes, cells were fixed in 2% formaldehyde and analyzed with a FACScan™ flow cytometer (BD Biosciences, San Jose, Calif.). A total of 10,000 cells were counted using a forward and side scatter gate to eliminate aggregates and debris for each sample. Results are expressed as relative fluorescence intensity.

HMW-MAA [3] = biological target: T1, HMW-MAA; assay: ELISA of soluble scFv antibodies with cell lines; design: Cultured human melanoma cells Colo38, FO-1, SK-MEL-28 and Melur, all of which express HMW-MAA; endogenous in cells; host or cells: Colo38, FO-1, SK-MEL-28, Melur human melanoma cells
Procedure: FIG. 1. Selective reactivity in ELISA of soluble scFv C21 with HMW-MAA^+ human cell lines. […] Binding of scFv fragments was detected using SA-HRP. Results are expressed as absorbance at 490 nm. Human anti-anti-id scFv #119 ( ? ) was used as a specificity control.
The ELISA to test the reactivity of soluble scFv antibodies with synthetic peptides and melanoma cells and of mouse immune sera with melanoma cells and with peptides was performed as described (Desai et al., Cancer Res 58:2417-2425, 1998; Desai et al., J Immunol 165:3275-3283, 2000; Matsui et al., J Immunol 139:2088-2095, 1987). Results are expressed as absorbance of optical density (O.D.) at 450 nm. The competition assay to map the antigenic determinant recognized by scFv C21 was performed by mixing biotinylated scFv C21 (0.25 μg/well) with two-fold dilutions of mouse mAb or scFv PP or by mixing biotinylated mAb (at an optimal amount giving absorbance, measured at 450 nm of 1.0) with two fold dilutions of scFv PP. […] Binding of biotinylated scFv antibodies and biotinylated mAb to target cells was measured by sequential incubation with SA-HRP and substrate as described (Noronha et al., J Immunol 161:2968-2976, 1998). The results are expressed as percent inhibition by mAb, scFv or peptide (competitor or inhibitor) of scFv or mAb binding to HMW-MAA^+ cells. […]

T1 sequence (Q6UVK1 30-2322): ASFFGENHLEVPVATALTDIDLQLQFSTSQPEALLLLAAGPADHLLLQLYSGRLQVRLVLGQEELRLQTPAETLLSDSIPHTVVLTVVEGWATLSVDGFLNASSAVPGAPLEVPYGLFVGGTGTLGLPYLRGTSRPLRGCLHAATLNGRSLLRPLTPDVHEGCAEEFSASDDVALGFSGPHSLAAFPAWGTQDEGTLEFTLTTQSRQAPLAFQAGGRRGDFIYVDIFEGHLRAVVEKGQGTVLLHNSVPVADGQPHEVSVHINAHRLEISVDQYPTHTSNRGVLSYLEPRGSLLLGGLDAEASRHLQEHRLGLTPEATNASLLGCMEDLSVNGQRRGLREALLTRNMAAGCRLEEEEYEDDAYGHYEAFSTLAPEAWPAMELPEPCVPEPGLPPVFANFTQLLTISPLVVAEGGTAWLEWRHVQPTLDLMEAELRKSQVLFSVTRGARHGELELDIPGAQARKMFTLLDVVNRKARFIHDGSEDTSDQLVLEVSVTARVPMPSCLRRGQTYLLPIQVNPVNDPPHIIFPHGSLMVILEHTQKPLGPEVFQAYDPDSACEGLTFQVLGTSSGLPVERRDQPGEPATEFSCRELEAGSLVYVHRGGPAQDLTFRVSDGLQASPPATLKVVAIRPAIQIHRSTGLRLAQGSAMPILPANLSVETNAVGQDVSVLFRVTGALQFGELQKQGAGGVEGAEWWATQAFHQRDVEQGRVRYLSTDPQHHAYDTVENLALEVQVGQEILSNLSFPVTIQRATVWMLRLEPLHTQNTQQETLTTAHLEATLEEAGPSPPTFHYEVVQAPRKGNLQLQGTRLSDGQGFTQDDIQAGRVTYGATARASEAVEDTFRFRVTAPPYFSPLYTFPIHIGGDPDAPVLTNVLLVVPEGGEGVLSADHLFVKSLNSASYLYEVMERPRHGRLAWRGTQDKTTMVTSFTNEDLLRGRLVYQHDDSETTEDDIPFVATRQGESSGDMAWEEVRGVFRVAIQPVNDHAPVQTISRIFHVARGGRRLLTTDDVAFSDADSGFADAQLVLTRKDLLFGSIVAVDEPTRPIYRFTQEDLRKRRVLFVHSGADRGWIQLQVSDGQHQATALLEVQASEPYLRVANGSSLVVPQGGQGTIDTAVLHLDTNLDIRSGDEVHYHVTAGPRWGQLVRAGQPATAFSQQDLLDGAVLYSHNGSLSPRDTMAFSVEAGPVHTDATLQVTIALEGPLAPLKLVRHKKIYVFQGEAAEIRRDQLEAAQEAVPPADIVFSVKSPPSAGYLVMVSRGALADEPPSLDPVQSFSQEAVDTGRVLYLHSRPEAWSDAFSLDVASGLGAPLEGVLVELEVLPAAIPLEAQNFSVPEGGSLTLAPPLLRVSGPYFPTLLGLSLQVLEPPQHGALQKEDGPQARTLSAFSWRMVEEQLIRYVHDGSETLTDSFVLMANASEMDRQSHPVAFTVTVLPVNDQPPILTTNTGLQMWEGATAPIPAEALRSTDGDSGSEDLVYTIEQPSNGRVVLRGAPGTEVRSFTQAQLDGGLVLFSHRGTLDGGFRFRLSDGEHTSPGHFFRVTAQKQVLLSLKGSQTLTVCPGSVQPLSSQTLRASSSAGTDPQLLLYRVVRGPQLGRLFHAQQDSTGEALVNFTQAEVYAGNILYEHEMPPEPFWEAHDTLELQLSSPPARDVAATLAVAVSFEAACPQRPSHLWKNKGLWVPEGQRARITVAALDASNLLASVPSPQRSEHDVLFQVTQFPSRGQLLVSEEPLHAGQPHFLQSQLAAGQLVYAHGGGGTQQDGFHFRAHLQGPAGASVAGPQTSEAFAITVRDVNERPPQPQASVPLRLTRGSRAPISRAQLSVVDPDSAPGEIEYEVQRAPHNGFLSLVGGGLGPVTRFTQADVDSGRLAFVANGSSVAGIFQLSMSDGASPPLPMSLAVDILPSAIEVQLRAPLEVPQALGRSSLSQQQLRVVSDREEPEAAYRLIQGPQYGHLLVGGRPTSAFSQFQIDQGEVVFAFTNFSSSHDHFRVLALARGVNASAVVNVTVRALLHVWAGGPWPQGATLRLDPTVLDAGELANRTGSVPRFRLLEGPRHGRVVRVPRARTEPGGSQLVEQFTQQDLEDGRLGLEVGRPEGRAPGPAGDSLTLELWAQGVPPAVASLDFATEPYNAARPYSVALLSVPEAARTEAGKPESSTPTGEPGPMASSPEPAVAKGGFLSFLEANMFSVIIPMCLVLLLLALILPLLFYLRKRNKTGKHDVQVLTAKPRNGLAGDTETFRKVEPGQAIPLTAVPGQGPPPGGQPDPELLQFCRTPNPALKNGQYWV

B1: scFv C21: HMW-MAA-specific fully human scFv from semi-synthetic phage display library; VH SEQ ID NO: 5, VL SEQ ID NO: 6 (antibody, listed as Homo sapiens, V domains shown)
VH: QVQLVQSGAEVKKPGSSVKVSCKASGGTFSSYAISWVRQAPGQGLEWMGGIIPIFGTANYAQKFQGRVTITADESTSTAYMELSSLRSDDTAVYYCARALDPITFDSWGQGTLVTVSR
VL: SELTQDPAVSVALGQTVRITCQGDSLRSYYASWYQQKPGQAPVLVIYGKNNRPSGIPDRFSGSSSGNTASLTITGAQAEDEADYYCNSRDSSGNHVVFGGGTKLTVLGRS
modifications: scFv linker
HMW-MAA [1]
  Effect of immunodepletion of Colo38 cell lysate with scFv C21 on components immunoprecipitated by mAb 763.74: removed most, but not all the components immunoprecipitated by mAb 763.74
  Immunoprecipitation from 125I labeled Colo38 cells: immunoprecipitated two components with the characteristic elecrophoretic profile of HMW-MAA components
HMW-MAA [1]; 35S-methionine labeling, N-glycosylation inhibitor tunicamycin
  Intensity of HMW-MAA components immunoprecipitated from Colo38 cells labeled in the presence of tunicamycin: marked reduction in the intensity of the HMW-MAA components immunoprecipitated
HMW-MAA [1]; sequential immunoprecipitation
  Immunoprecipitation from Colo38 cell lysate immunodepleted with mAb 763.74: did not immunoprecipitate any components
HMW-MAA [1]; specificity control of immunodepletion
  Immunoprecipitation from Colo38 cell lysate immunodepleted with 100KD MAA-specific mAb 376.96: immunoprecipitated the HMW-MAA components
HMW-MAA [2]; M14 cells stably transfected with full length HMW-MAA
  Flow cytometry staining of HMW-MAA transfected M14 cells: stained M14 cells which express HMW-MAA
HMW-MAA [2]; parental M14 cells, do not express HMW-MAA
  Flow cytometry staining of parental M14 cells: did not stain the parental M14 cells
HMW-MAA [3]; FIG. 1
  Reactivity in ELISA with panel of human cell lines with differential HMW-MAA expression and rat neural cell line B49: reacted only with the melanoma cell lines Colo38, FO-1, Melur and SK-MEL-28
HMW-MAA [3]; clones C3, C21, C29, C30
  Reactivity in ELISA relative to the other selected clones: highest reactivity

Source: US9694061B2, “Fully human antibodies to high molecular weight-melanoma associated antigen and uses thereof” (University of Pittsburgh—Of the Commonwealth System of …, priority 2008, dated 2017)
